Target: ETS1:RUNX1 (Homo sapiens, UniProt P14921;Q01196 full;full)
Test: gcPBM; 1 nM ETS1 + 25 nM RUNX1, anti-ETS1 signal, normalised
Conditions: tags: N-terminal GST (pDEST15), kept (PMC6008103); copies: 1;1; label: surface-attached array probe

Sequence of ETS1:RUNX1 (P14921 whole entry, chain 1 of 2): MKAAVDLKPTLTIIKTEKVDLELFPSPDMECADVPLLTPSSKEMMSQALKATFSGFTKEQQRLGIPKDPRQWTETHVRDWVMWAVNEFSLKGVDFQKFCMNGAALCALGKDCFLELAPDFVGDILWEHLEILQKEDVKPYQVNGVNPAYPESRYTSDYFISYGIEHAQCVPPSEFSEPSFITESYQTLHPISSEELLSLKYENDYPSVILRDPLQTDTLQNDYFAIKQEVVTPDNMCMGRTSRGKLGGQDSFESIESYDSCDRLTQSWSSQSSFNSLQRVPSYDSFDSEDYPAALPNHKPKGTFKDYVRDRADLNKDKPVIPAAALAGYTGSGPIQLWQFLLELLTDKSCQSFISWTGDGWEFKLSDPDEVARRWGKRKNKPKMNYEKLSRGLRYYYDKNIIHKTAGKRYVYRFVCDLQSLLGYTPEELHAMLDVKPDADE
Sequence of ETS1:RUNX1 (Q01196 whole entry, chain 2 of 2): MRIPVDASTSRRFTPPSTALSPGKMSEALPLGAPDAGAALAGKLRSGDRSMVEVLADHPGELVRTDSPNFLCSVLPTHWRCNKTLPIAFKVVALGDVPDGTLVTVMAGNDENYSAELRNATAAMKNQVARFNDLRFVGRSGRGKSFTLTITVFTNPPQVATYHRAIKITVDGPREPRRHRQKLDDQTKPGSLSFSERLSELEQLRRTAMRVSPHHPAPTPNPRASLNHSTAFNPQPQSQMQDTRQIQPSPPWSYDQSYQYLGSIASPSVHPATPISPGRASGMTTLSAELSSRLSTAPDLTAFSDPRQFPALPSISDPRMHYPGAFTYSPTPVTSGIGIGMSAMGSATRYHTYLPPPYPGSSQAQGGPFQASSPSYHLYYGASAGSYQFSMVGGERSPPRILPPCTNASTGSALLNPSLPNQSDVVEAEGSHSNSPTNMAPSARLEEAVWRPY

Binder	binding signal
Table S2 A row 793 (dsDNA) DNA 1: GTTCAGCAGGAAGTGGATGTGGATGTGTGGTTGCCA DNA 2: TGGCAACCACACATCCACATCCACTTCCTGCTGAAC	7060 PBM fluorescence, median of replicate spots
Table S2 A row 123 (dsDNA) DNA 1: TTTATCATGAATGCAGGATGTGGGCAGACTCACAGC DNA 2: GCTGTGAGTCTGCCCACATCCTGCATTCATGATAAA	6920 PBM fluorescence, median of replicate spots
Table S2 A row 1319 (dsDNA) DNA 1: GAGGAACCCAAAGTAGGATGTGGTTTTGCAATTGGA DNA 2: TCCAATTGCAAAACCACATCCTACTTTGGGTTCCTC	6860 PBM fluorescence, median of replicate spots
Table S2 A row 1610 (dsDNA) DNA 1: ACACCTCAGGCAGGATGTGGTAGGGGTTGCCCCAGA DNA 2: TCTGGGGCAACCCCTACCACATCCTGCCTGAGGTGT	6800 PBM fluorescence, median of replicate spots
Table S2 A row 1755 (dsDNA) DNA 1: CAGAGCCAAACATGCGGAAGTGGTTACGTGTACTAG DNA 2: CTAGTACACGTAACCACTTCCGCATGTTTGGCTCTG	6770 PBM fluorescence, median of replicate spots
Table S2 A row 144 (dsDNA) DNA 1: GCCACACTGGCGGAAATGGTGGTTACTGTTCGAGCC DNA 2: GGCTCGAACAGTAACCACCATTTCCGCCAGTGTGGC	6760 PBM fluorescence, median of replicate spots
Table S2 A row 638 (dsDNA) DNA 1: CAAGGCACCAACGGATGTGGTATCTGGTGAGGGCTT DNA 2: AAGCCCTCACCAGATACCACATCCGTTGGTGCCTTG	6740 PBM fluorescence, median of replicate spots
Table S2 A row 866 (dsDNA) DNA 1: CTGAAACAGGAAGCTGAGGGTGCGGTTGGGGGAGGA DNA 2: TCCTCCCCCAACCGCACCCTCAGCTTCCTGTTTCAG	6680 PBM fluorescence, median of replicate spots
Table S2 A row 1358 (dsDNA) DNA 1: CAGCCTTGCCGGAAGGCAGAGTTTGTGGTCAGACCG DNA 2: CGGTCTGACCACAAACTCTGCCTTCCGGCAAGGCTG	6650 PBM fluorescence, median of replicate spots
Table S2 A row 104 (dsDNA) DNA 1: TGGGGACCACTGTCAGGATGTGGTCACTGGAGTCAC DNA 2: GTGACTCCAGTGACCACATCCTGACAGTGGTCCCCA	6580 PBM fluorescence, median of replicate spots
Table S2 A row 1336 (dsDNA) DNA 1: CACCTCGGGGGTTTCCGGTCCGTGGTTAGCTCCTTC DNA 2: GAAGGAGCTAACCACGGACCGGAAACCCCCGAGGTG	6540 PBM fluorescence, median of replicate spots
Table S2 A row 1086 (dsDNA) DNA 1: TTTCTGACACTCTCAGGATGTGGGTTTTCACACTGT DNA 2: ACAGTGTGAAAACCCACATCCTGAGAGTGTCAGAAA	6500 PBM fluorescence, median of replicate spots
Table S2 A row 601 (dsDNA) DNA 1: CATTCAGTAAAAGGATGTGGTTTAGAACAGATGAAA DNA 2: TTTCATCTGTTCTAAACCACATCCTTTTACTGAATG	6340 PBM fluorescence, median of replicate spots
Table S2 A row 1069 (dsDNA) DNA 1: AAAGCATTTCCTGCCTTGACTTAACCACAAGACAGG DNA 2: CCTGTCTTGTGGTTAAGTCAAGGCAGGAAATGCTTT	6290 PBM fluorescence, median of replicate spots
Table S2 A row 329 (dsDNA) DNA 1: TCCAGCTCCACAGGATGTGGTGAGTGAAGCAGCAAG DNA 2: CTTGCTGCTTCACTCACCACATCCTGTGGAGCTGGA	6260 PBM fluorescence, median of replicate spots
Table S2 A row 719 (dsDNA) DNA 1: TTGCCATTCCAGGAAATGAGCTTACCACATTGACTG DNA 2: CAGTCAATGTGGTAAGCTCATTTCCTGGAATGGCAA	6220 PBM fluorescence, median of replicate spots
Table S2 A row 1614 (dsDNA) DNA 1: ACCTCAAGCCCAGGATGTGGTTTGGCCACTATTGAG DNA 2: CTCAATAGTGGCCAAACCACATCCTGGGCTTGAGGT	6100 PBM fluorescence, median of replicate spots
Table S2 A row 391 (dsDNA) DNA 1: TGCAAAAAAACAGGAAACACCCAGCCGCAAATTATA DNA 2: TATAATTTGCGGCTGGGTGTTTCCTGTTTTTTTGCA	6020 PBM fluorescence, median of replicate spots
Table S2 A row 1225 (dsDNA) DNA 1: GCTAGACAGGAAACAGTGAGCTTCTGTGGGCAGGAG DNA 2: CTCCTGCCCACAGAAGCTCACTGTTTCCTGTCTAGC	5960 PBM fluorescence, median of replicate spots
Table S2 A row 1719 (dsDNA) DNA 1: GCCACACTTCCGGCGGGGCTGCGACCGCAGAGGGGC DNA 2: GCCCCTCTGCGGTCGCAGCCCCGCCGGAAGTGTGGC	5900 PBM fluorescence, median of replicate spots
Table S2 A row 1241 (dsDNA) DNA 1: AAGAAAAAGGGAGGATGTGGTTTAGCAAAAGCACTG DNA 2: CAGTGCTTTTGCTAAACCACATCCTCCCTTTTTCTT	5810 PBM fluorescence, median of replicate spots
Table S2 A row 733 (dsDNA) DNA 1: CAGTGAACAGTTTCCTGTTCCTGTGGTTTTGACTTT DNA 2: AAAGTCAAAACCACAGGAACAGGAAACTGTTCACTG	5690 PBM fluorescence, median of replicate spots

Binder	binding signal
Table S2 A row 1530 (dsDNA) DNA 1: CCAGGCGGAAGCGGCCGGGAGTAGCGCTGCGGTTGG DNA 2: CCAACCGCAGCGCTACTCCCGGCCGCTTCCGCCTGG	5640 PBM fluorescence, median of replicate spots
Table S2 A row 1154 (dsDNA) DNA 1: GGCCTCGGCCACATCCGGGTTCCACCGCAGATTCGG DNA 2: CCGAATCTGCGGTGGAACCCGGATGTGGCCGAGGCC	5630 PBM fluorescence, median of replicate spots
Table S2 A row 1363 (dsDNA) DNA 1: ATGAGCTATTTCCTGCCTTGTGGTCAGAGCCAGACT DNA 2: AGTCTGGCTCTGACCACAAGGCAGGAAATAGCTCAT	5600 PBM fluorescence, median of replicate spots
Table S2 A row 1723 (dsDNA) DNA 1: CAACCCGGAAGCACTAACGGAGAAACCGCAACTCGG DNA 2: CCGAGTTGCGGTTTCTCCGTTAGTGCTTCCGGGTTG	5540 PBM fluorescence, median of replicate spots
Table S2 A row 1092 (dsDNA) DNA 1: CTCACAGAGCAAGTAGGATGTGGTTTCCAGGGGCTG DNA 2: CAGCCCCTGGAAACCACATCCTACTTGCTCTGTGAG	5400 PBM fluorescence, median of replicate spots
Table S2 A row 1378 (dsDNA) DNA 1: CAAGAGAAAGGAAGTGGAAGCTCTTGTGGTCTGGAA DNA 2: TTCCAGACCACAAGAGCTTCCACTTCCTTTCTCTTG	5370 PBM fluorescence, median of replicate spots
Table S2 A row 414 (dsDNA) DNA 1: CGCCGAACTTCCGGCAGTAAATTCCGTGGTTTCCCT DNA 2: AGGGAAACCACGGAATTTACTGCCGGAAGTTCGGCG	5300 PBM fluorescence, median of replicate spots
Table S2 A row 1035 (dsDNA) DNA 1: AGTTGGTTCCTTCCGGTGGGTTTGTGGGTTTGGGGT DNA 2: ACCCCAAACCCACAAACCCACCGGAAGGAACCAACT	5250 PBM fluorescence, median of replicate spots
Table S2 A row 860 (dsDNA) DNA 1: CTGAGCCGGATGTTACTGGTTAGTGGTTTTCTTTAT DNA 2: ATAAAGAAAACCACTAACCAGTAACATCCGGCTCAG	5210 PBM fluorescence, median of replicate spots
Table S2 A row 1272 (dsDNA) DNA 1: TTGAATATGAAAGGAAGTGGTTAGGTGATGTGTTCT DNA 2: AGAACACATCACCTAACCACTTCCTTTCATATTCAA	5150 PBM fluorescence, median of replicate spots
Table S2 A row 145 (dsDNA) DNA 1: TGGGGAACGCTGCGGATGCTGCGGTAAACCATGCGA DNA 2: TCGCATGGTTTACCGCAGCATCCGCAGCGTTCCCCA	5120 PBM fluorescence, median of replicate spots
Table S2 A row 163 (dsDNA) DNA 1: GATTGTTATGTCCGGAAACCGCTTATCAGAGCCCTG DNA 2: CAGGGCTCTGATAAGCGGTTTCCGGACATAACAATC	5000 PBM fluorescence, median of replicate spots
Table S2 A row 717 (dsDNA) DNA 1: GGACAGGAAGTTCCTGCAGCTTCTACCACAAACCTA DNA 2: TAGGTTTGTGGTAGAAGCTGCAGGAACTTCCTGTCC	4990 PBM fluorescence, median of replicate spots
Table S2 A row 877 (dsDNA) DNA 1: GAGTGGGCGGAAATCCGTGCCTGGCAGACCACAAAG DNA 2: CTTTGTGGTCTGCCAGGCACGGATTTCCGCCCACTC	4940 PBM fluorescence, median of replicate spots
Table S2 A row 485 (dsDNA) DNA 1: TGAAGTACTAGTCAAGGATGTGGTTTTACATAGCAG DNA 2: CTGCTATGTAAAACCACATCCTTGACTAGTACTTCA	4920 PBM fluorescence, median of replicate spots
Table S2 A row 777 (dsDNA) DNA 1: CAGGAGCAGTGTAGAGGAAGTGGTTTCCATCACGGA DNA 2: TCCGTGATGGAAACCACTTCCTCTACACTGCTCCTG	4870 PBM fluorescence, median of replicate spots
Table S2 A row 1268 (dsDNA) DNA 1: GAATGGCGGATGTGGCTGGGGAGAGAAAGCCGCAGA DNA 2: TCTGCGGCTTTCTCTCCCCAGCCACATCCGCCATTC	4780 PBM fluorescence, median of replicate spots
Table S2 A row 1339 (dsDNA) DNA 1: GTAGGGAAGACGGGATGTGGGTTTTCAGCCGTGGCC DNA 2: GGCCACGGCTGAAAACCCACATCCCGTCTTCCCTAC	4760 PBM fluorescence, median of replicate spots
Table S2 A row 1300 (dsDNA) DNA 1: CAAGTAATCTGCTCAGGAAGTGGTTTGAATAGAGGA DNA 2: TCCTCTATTCAAACCACTTCCTGAGCAGATTACTTG	4710 PBM fluorescence, median of replicate spots
Table S2 A row 1325 (dsDNA) DNA 1: GGACCGGTGTCTGGCGGATGCGGTCGTGAAGATAGG DNA 2: CCTATCTTCACGACCGCATCCGCCAGACACCGGTCC	4590 PBM fluorescence, median of replicate spots
Table S2 A row 1073 (dsDNA) DNA 1: ACCTTGCCTAGAGGAAGTGGTTTTTCGAATCTGAGT DNA 2: ACTCAGATTCGAAAAACCACTTCCTCTAGGCAAGGT	4490 PBM fluorescence, median of replicate spots
Table S2 A row 426 (dsDNA) DNA 1: GCCGGAAGCCACGCAGGGCCACGTCTGCGGTTCTGA DNA 2: TCAGAACCGCAGACGTGGCCCTGCGTGGCTTCCGGC	4460 PBM fluorescence, median of replicate spots

— paper PMC10681739, “High-throughput data and modeling reveal insights into the mechanisms of cooperative DNA-binding by transcription factor proteins”
